Experimental data as given in FireProtDB.
Several values for one entry are separate records, joined by “and”; a condition that tells them apart may be missing. Equal values may be shown once.

[1] = Saccharomyces cerevisiae (strain ATCC 204508 / S288c), pH 6, 20 °C, GdnHCl, Fluorescence, Sodium phosphate 0.1 M, reversible: yes, structure 1YCC
[2] = Saccharomyces cerevisiae (strain ATCC 204508 / S288c), pH 6, 46.5 °C, Thermal, Absorbance, Sodium phosphate 100 mM, reversible: yes, structure 1YCC
[3] = Saccharomyces cerevisiae (strain ATCC 204508 / S288c), pH 6, Thermal, Absorbance, Sodium phosphate 100 mM, reversible: yes, structure 1YCC
[4] = Escherichia coli (strain K12), pH 7.2, Thermal, DSC, HEPES 0.05 mM, structure 1ANK
[5] = Escherichia coli (strain K12), pH 7.5, Thermal, CD, Potassium phosphate 10 mM, reversible: yes, structure 1EZA
[6] = Escherichia coli (strain K12), pH 7.5, Thermal, DSC, Potassium phosphate 10 mM, reversible: yes, structure 1EZA
[7] = Bos taurus, pH 8, Thermal, DSC, Tris-HCl 10 mM, NaCl 200 mM, reversible: yes
[8] = Oryctolagus cuniculus, pH 7, Thermal, DSC, Glycerol 20 % v/v, KCl 100 mM, reversible: no, whole UniProt chain shown
[9] = Methanobacterium formicicum, pH 7.2, 25 °C, GdnHCl, CD, potasssium phosphate 20 mM, KCl 200 mM, reversible: yes
[10] = Gallus gallus, pH 7, 25 °C, NaClO4 titration, CD, PIPES 10 mM, NaCl 50 mM, reversible: no
[11] = Escherichia coli (strain K12), pH 7, 10 °C, Urea, CD, Potassium phosphate 50 mM, KCl 100 mM
[12] = Escherichia coli (strain K12), pH 7, 25 °C, GdnHCl, Fluorescence, potassium phosphate 50 mM, KCl 100 M, reversible: yes
[13] = Escherichia coli (strain K12), pH 7, 25 °C, Urea, CD, Potassium phosphate 50 mM, KCl 100 mM
[14] = Escherichia coli (strain K12), pH 7, 25 °C, Urea, Fluorescence, potassium phosphate 50 mM, KCl 100 mM, reversible: yes

Chain of Cytochrome c isoform 1 C108S, P00044 (P00044 whole entry C108S, canonical isoform): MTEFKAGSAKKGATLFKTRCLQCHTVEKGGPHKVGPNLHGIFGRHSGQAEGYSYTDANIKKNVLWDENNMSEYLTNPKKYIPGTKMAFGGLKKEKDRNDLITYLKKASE
Chain of Cytochrome c isoform 1 N58I|C108A, P00044 N58I C108A (P00044 whole entry N58I/C108A, canonical isoform): as the sequence (P00044 whole entry C108S, canonical isoform) above, with N58I, S108A counted along it
Chain of Superoxide dismutase [Cu-Zn] wild type, P00442 (P00442 whole entry): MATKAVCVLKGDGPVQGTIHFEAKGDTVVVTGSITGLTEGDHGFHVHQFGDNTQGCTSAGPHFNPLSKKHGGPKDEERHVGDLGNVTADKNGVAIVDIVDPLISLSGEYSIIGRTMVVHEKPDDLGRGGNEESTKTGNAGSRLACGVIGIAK
Chain of Archaeal histone B wild type, P48784 (P48784 whole entry): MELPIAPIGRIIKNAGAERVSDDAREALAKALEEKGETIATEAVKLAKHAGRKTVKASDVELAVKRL
Chain of Cytochrome c isoform 1 G35S|N58I, P00044 G35S N58I (P00044 whole entry G35S/N58I, canonical isoform): as the sequence (P00044 whole entry C108S, canonical isoform) above, with G35S, N58I, S108C counted along it
Chain of Cold shock protein CspA wild type, P0A9X9 (P0A9X9 whole entry): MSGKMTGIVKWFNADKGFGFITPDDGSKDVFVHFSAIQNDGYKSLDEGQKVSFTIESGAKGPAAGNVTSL
Chain of Cytochrome c isoform 1 P77T, P00044 (P00044 whole entry P77T, canonical isoform): as the sequence (P00044 whole entry C108S, canonical isoform) above, with P77T, S108C counted along it
Chain of Cytochrome c V93A, P67881 (P67881 whole entry V93A): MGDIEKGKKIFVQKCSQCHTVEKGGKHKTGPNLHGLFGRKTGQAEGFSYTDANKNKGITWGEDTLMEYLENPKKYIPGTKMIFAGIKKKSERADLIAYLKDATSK
Chain of Endo-1,4-beta-xylanase wild type, Q56013 (Q56013 entry or part of it): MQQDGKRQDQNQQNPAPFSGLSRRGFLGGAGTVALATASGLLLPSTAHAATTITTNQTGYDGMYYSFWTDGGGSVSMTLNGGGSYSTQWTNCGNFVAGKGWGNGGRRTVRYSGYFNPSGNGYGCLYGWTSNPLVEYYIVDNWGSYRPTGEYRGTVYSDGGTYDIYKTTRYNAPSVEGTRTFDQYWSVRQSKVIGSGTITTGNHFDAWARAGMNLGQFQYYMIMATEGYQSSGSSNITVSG
Chain of Cytochrome c V93A|S104A, P67881 V93A S104A (P67881 whole entry V93A/S104A): as the sequence (P67881 whole entry V93A) above, with S104A counted along it

## Cytochrome c isoform 1 P77T, P00044
[1]
  ddG of mutation (higher = less stable): 1.7 kcal/mol
  denaturant midpoint (higher = more stable): 0.72 M
  unfolding free energy: 1.9 kcal/mol

## Cytochrome c isoform 1 G35S|N58I, P00044 G35S N58I
[2]
  ddG of mutation (higher = less stable): 1.5 kcal/mol
  heat capacity change of unfolding: 2 kcal/mol/K
[3]
  Tm: 40.3 °C
  change of melting temperature, mutant - wild type (higher = more stable): -6.2 °C
  heat capacity change of unfolding: 2 kcal/mol/K
  unfolding enthalpy (van 't Hoff): 58 kcal/mol

## Cytochrome c isoform 1 N58I|C108A, P00044 N58I C108A
[2]
  ddG of mutation (higher = less stable): -6.2 kcal/mol
  heat capacity change of unfolding: 2 kcal/mol/K
[3]
  Tm: 71.5 °C
  change of melting temperature, mutant - wild type (higher = more stable): 25 °C
  heat capacity change of unfolding: 2 kcal/mol/K
  unfolding enthalpy (van 't Hoff): 115 kcal/mol

## Adenylate kinase G85V, P69441
Escherichia coli (strain K12), pH 7.2, 51.8 °C, Thermal, DSC, HEPES 0.05 mM, structure 1ANK
  ddG of mutation (higher = less stable): 2.4 kcal/mol
[4]
  Tm: 40.7 °C
  change of melting temperature, mutant - wild type (higher = more stable): -11.1 °C
  unfolding enthalpy (calorimetric): 70 kcal/mol

## Phosphoenolpyruvate-protein phosphotransferase H189A, P08839
[5]
  Tm: 54 °C
  unfolding enthalpy (van 't Hoff): 118 kcal/mol
[6]
  Tm: 55.8 °C
  unfolding enthalpy (calorimetric): 143 kcal/mol

## Superoxide dismutase [Cu-Zn] wild type, P00442
Bos taurus, pH 7.8, Thermal, DSC, Potassium phosphate 100 mM, reversible: no (32%)
  Tm: 88.3 °C
[7]
  Tm: 59.9 °C
  unfolding enthalpy (calorimetric): 152 kcal/mol

## AKKVLPLLLPPLVXAALGLAXF [wild type]
[8]
  Tm: 42.3 °C
  unfolding enthalpy (calorimetric): 300 kcal/mol

## Endo-1,4-beta-xylanase wild type, Q56013
Streptomyces sp. EC3, pH 6, Thermal, CD, Sodium phosphate 25 mM, reversible: no
  Tm: 56.8 °C
Streptomyces sp. EC3, pH 6, Thermal, Fluorescence, Sodium phosphate 25 mM, reversible: no
  Tm: 61.1 °C

## Archaeal histone B wild type, P48784
[9]
  denaturant m value: 3.4 kcal/mol/M
  unfolding free energy: 5.7 kcal/mol and 10.8 kcal/mol

## Cytochrome c V93A, P67881
[10]
  ddG of mutation (higher = less stable): 0.26 kcal/mol
  unfolding free energy: 4.91 kcal/mol

## Cytochrome c isoform 1 C108S, P00044
[2]
  ddG of mutation (higher = less stable): -2.8 kcal/mol
  heat capacity change of unfolding: 2 kcal/mol/K
[3]
  Tm: 57.8 °C
  change of melting temperature, mutant - wild type (higher = more stable): 11.3 °C
  heat capacity change of unfolding: 2 kcal/mol/K
  unfolding enthalpy (van 't Hoff): 87 kcal/mol

## Cytochrome c V93A|S104A, P67881 V93A S104A
[10]
  ddG of mutation (higher = less stable): 0.26 kcal/mol
  unfolding free energy: 4.91 kcal/mol

## Cold shock protein CspA wild type, P0A9X9
[11]
  denaturant m value: 0.59 kcal/mol/M
  denaturant midpoint (higher = more stable): 4.95 M
  unfolding free energy: 2.92 kcal/mol
[12]
  denaturant m value: 2.2 kcal/mol/M
  denaturant midpoint (higher = more stable): 1.4 M
  unfolding free energy: 3.1 kcal/mol
[13]
  denaturant m value: 0.71 kcal/mol/M
  denaturant midpoint (higher = more stable): 4.2 M
  unfolding free energy: 3 kcal/mol
[14]
  denaturant m value: 0.71 kcal/mol/M
  denaturant midpoint (higher = more stable): 4.2 M
  unfolding free energy: 3 kcal/mol
Escherichia coli (strain K12), pH 7, Thermal, CD, potassium phosphate 50 mM, KCl 100 M, reversible: yes
  Tm: 59 °C

## Phosphoenolpyruvate-protein phosphotransferase H189E, P08839
[5]
  Tm: 52.1 °C
  unfolding enthalpy (van 't Hoff): 128 kcal/mol
[6]
  Tm: 53.7 °C
  unfolding enthalpy (calorimetric): 135 kcal/mol
